Here are results for 14 variants from the supplement of paper PMC11811203.

B1: THAP1; numbered along this chain (parent)
chain: MVQSCSAYGCKNRYDKDKPVSFHKFPLTRPSLCKEWEAAVRRKNFKPTKYSSICSEHFTPDCFKRECNNKLLKENAVPTIFLCTEPHDKKEDLLEPQEQLPPPPLPPPVSQVDAAIGLLMPPLQTPVNLSVFCDHNYTVEDTMHQRKRIHQLEQQVEKLRKKLKTAQQRCRRQERQLEKLKEVVHFQKEKDDVSERGYVILPNDYFEIVEVPA

Variants of B1 are the subject of this data set. Put plainly: THAP1 transcriptional activity (GFP+/GFP- enrichment relative to wild-type constructs) (ratio to WT); higher = more THAP1 activity (PSMB5 reporter activation). Particulars: with PSMB5 promoter-GFP reporter. Put shortly:
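In duplicate, a lentivirus-delivered library with every residue from 2–213 of human THAP1 changed to all 20 amino acids was introduced at MOI ~0.3 into THAP1-knockout HEK-293T cells carrying endogenous PSMB5 tagged by mClover3 knock-in. Five days on, BFP+ cells were binned as GFP-dim or GFP-bright, and Illumina sequencing of genomic DNA amplicons counted each variant. Activity is the bright/dim read fold change, averaged over replicates and scaled to the mean of wild-type synonymous constructs.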
Turning to MVQSCSAYGCKNRYDKDKPVSFHKFPLTRPSLCKEWEAAVRRKNFKPTKYSSICSEHFTPDCFKRECNNKLLKENAVPTIFLCTEPHDKKEDLLEPQEQLPPPPLPPPVSQVDAAIGLLMPPLQTPVNLSVFCDHNYTVEDTMPQRKRIHQLEQQVEKLRKKLKTAQQRCRRQERQLEKLKEVVHFQKEKDDVSERGYVILPNDYFEIVEVPA [H144P], the THAP1 transcriptional activity came out at 0.334. The result for MVQSCSAYGCKNRYDKDKPVSFHKFPLTRPSLCKEWEAAVRRKNFKPTKYSSICSEHFTPDCFKRECNNKLLKENAVPTIFLCTEPHDKKEDLLEPQEQLPPPPLPPPVSQVDPAIGLLMPPLQTPVNLSVFCDHNYTVEDTMHQRKRIHQLEQQVEKLRKKLKTAQQRCRRQERQLEKLKEVVHFQKEKDDVSERGYVILPNDYFEIVEVPA [A114P] reads 1.29. The result for MVQSCSAYGCKNRYDKDKPVSFHKFPLTRPSLCKEWEAAVRRKNFKPTKYSSICSEHFTPDCFKRECNNKLLKENAVPTIFLCTEPHDKKEDLLEPQEQLPPPPLPPPVSQVDAAIGLLMPPLQTPVNLSVFCDHNYTVEDTMHQRKRIHQLEQQVAKLRKKLKTAQQRCRRQERQLEKLKEVVHFQKEKDDVSERGYVILPNDYFEIVEVPA [E157A] reads 1.14; that for MVQSCSAYGCKNRYDKDKPVSFHKFPLTRPSLCKEWEAAVRRKNFKPTKYSSICSEHFTPDCFKRECNNKLLKENAVPTIFLCTEPHDKKEDLLEPQEQLPPPPLPPPVSQVDAAIGLLMPPLQTPVNLSVFCDHNYTVEDTMHQRKRIHQLEQQVEKLRKKLKTAQQRCRRAERQLEKLKEVVHFQKEKDDVSERGYVILPNDYFEIVEVPA [Q173A], 0.888; that for MVQSCSAYGCKNRYDKDKPVSFHKFPLTRPSLCKEWEAAVRRKNFKPTKYSSICSEHFTPDCFKRECNNKLLKENAVPTIFLCTEPHDKKEDLLEPQEQLPPPPLPPPVSQVDAAIGLLMPPLQTPVNLSVFCDHNYTVEDTMHQRKRIMQLEQQVEKLRKKLKTAQQRCRRQERQLEKLKEVVHFQKEKDDVSERGYVILPNDYFEIVEVPA [H150M], 1.09. To MVQSCSAYGCKNRYDKDKPVSFHKFPLTRRSLCKEWEAAVRRKNFKPTKYSSICSEHFTPDCFKRECNNKLLKENAVPTIFLCTEPHDKKEDLLEPQEQLPPPPLPPPVSQVDAAIGLLMPPLQTPVNLSVFCDHNYTVEDTMHQRKRIHQLEQQVEKLRKKLKTAQQRCRRQERQLEKLKEVVHFQKEKDDVSERGYVILPNDYFEIVEVPA [P30R] belongs 0.396; to MVQSCSAYGCKNRYDKDKPVSFHKFPLTRPSLCKEHEAAVRRKNFKPTKYSSICSEHFTPDCFKRECNNKLLKENAVPTIFLCTEPHDKKEDLLEPQEQLPPPPLPPPVSQVDAAIGLLMPPLQTPVNLSVFCDHNYTVEDTMHQRKRIHQLEQQVEKLRKKLKTAQQRCRRQERQLEKLKEVVHFQKEKDDVSERGYVILPNDYFEIVEVPA [W36H], 0.187. For MVQSCSAYGCKNDYDKDKPVSFHKFPLTRPSLCKEWEAAVRRKNFKPTKYSSICSEHFTPDCFKRECNNKLLKENAVPTIFLCTEPHDKKEDLLEPQEQLPPPPLPPPVSQVDAAIGLLMPPLQTPVNLSVFCDHNYTVEDTMHQRKRIHQLEQQVEKLRKKLKTAQQRCRRQERQLEKLKEVVHFQKEKDDVSERGYVILPNDYFEIVEVPA [R13D], the THAP1 transcriptional activity was 0.115. To MVQSCSAYGCKFRYDKDKPVSFHKFPLTRPSLCKEWEAAVRRKNFKPTKYSSICSEHFTPDCFKRECNNKLLKENAVPTIFLCTEPHDKKEDLLEPQEQLPPPPLPPPVSQVDAAIGLLMPPLQTPVNLSVFCDHNYTVEDTMHQRKRIHQLEQQVEKLRKKLKTAQQRCRRQERQLEKLKEVVHFQKEKDDVSERGYVILPNDYFEIVEVPA [N12F] belongs 0.112.

Consider MVQSCSAYQCKNRYDKDKPVSFHKFPLTRPSLCKEWEAAVRRKNFKPTKYSSICSEHFTPDCFKRECNNKLLKENAVPTIFLCTEPHDKKEDLLEPQEQLPPPPLPPPVSQVDAAIGLLMPPLQTPVNLSVFCDHNYTVEDTMHQRKRIHQLEQQVEKLRKKLKTAQQRCRRQERQLEKLKEVVHFQKEKDDVSERGYVILPNDYFEIVEVPA [G9Q], for which the THAP1 transcriptional activity is 0.115. The result for MVQSCSAYGCKNRYDKDKPVSFHKFPLTRPSLCKEWEAAVRRKNFKPTKYSSICSEHFTPDCFKRECNNKLLKENAVPTIFLCTEPHDKKEDLLEPQEQLPPPPLPPNVSQVDAAIGLLMPPLQTPVNLSVFCDHNYTVEDTMHQRKRIHQLEQQVEKLRKKLKTAQQRCRRQERQLEKLKEVVHFQKEKDDVSERGYVILPNDYFEIVEVPA [P108N] reads 2.3. To MVQSCSAYGCKNRYDKDKPVSFHKFPLTRPSLCKEWEAAVRRKNFKPTKYSSICSEHFTPDCFKRECNNKLLFENAVPTIFLCTEPHDKKEDLLEPQEQLPPPPLPPPVSQVDAAIGLLMPPLQTPVNLSVFCDHNYTVEDTMHQRKRIHQLEQQVEKLRKKLKTAQQRCRRQERQLEKLKEVVHFQKEKDDVSERGYVILPNDYFEIVEVPA [K73F] belongs 0.19; to MVQSCSAYGCKNRYDKDKPVSFHKFPLTRPSLCKEWEAAVRRKNFKPTKYSSICSEHFTPDCFKRECNNKLLKENAVPTIFLCTEPHDKKEDLLEPQEQLPLPPLPPPVSQVDAAIGLLMPPLQTPVNLSVFCDHNYTVEDTMHQRKRIHQLEQQVEKLRKKLKTAQQRCRRQERQLEKLKEVVHFQKEKDDVSERGYVILPNDYFEIVEVPA [P102L], 1.12.

On to MVQSCSAYGCKNRYDKDKPVSFHKFPLTRPSLCKEWEAAVRRKNFKPTKYSSICSEHFTPDCFKRECNNKLLKENAVPTIFLCTEPHDKKEDLLEPQEQLPQPPLPPPVSQVDAAIGLLMPPLQTPVNLSVFCDHNYTVEDTMHQRKRIHQLEQQVEKLRKKLKTAQQRCRRQERQLEKLKEVVHFQKEKDDVSERGYVILPNDYFEIVEVPA [P102Q], for which the THAP1 transcriptional activity is 3.01.
